Experimental findings from the supplement of paper PMC12042874 are described below.

± gives the uncertainty stated by the source.

This series in a line: amyloid nucleation score (Sup35N fusion, yeast selection) (log enrichment); library NNK3; higher = more nucleation; inactive = no reads after selection. Summed up:
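Three technical output replicates were used for random libraries. Psi-negative yeast expressing peptides of 20 random codons fused to Sup35N were induced with 100 μM copper sulfate for 24 hours and grown 7 days at 30°C on medium lacking adenine and uracil, and input and output plasmid inserts were Illumina-sequenced, excluding sequences with under 100 input reads. The nucleation score is the DiMSum log enrichment of output over input reads, centred on the mode score of non-aggregating sequences.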

As to ITDLYF, the amyloid nucleation score entry was “inactive”. As to IEKASACNG, the amyloid nucleation score entry was “inactive”.

On to GWNLGMAHSRRYGPVNISAW, for which the amyloid nucleation score entry is “inactive”.

With HFVTDDNGGICDVDNV, the amyloid nucleation score result was “inactive”. Take ASSKCYINKRSNPGRRGLYG: the amyloid nucleation score result was “inactive”. Take CMKLYRHFLNKASVHSDKGV: the amyloid nucleation score result is “inactive”. In the case of SLESWFVTRRCSRYESTFMS, the amyloid nucleation score entry is “inactive”. Consider LLTYHTSGYSCWSEG, for which the amyloid nucleation score entry is “inactive”.

Consider SLFFN, for which the amyloid nucleation score result was “inactive”. Turning to QDAMSTEVEGTF, the amyloid nucleation score entry was “inactive”. Take LFCFSVN: the amyloid nucleation score entry was “inactive”. On to YSFSRY, for which the amyloid nucleation score result is “inactive”. Regarding YNERLALLGLMVSLNVSSHS, the amyloid nucleation score entry is “inactive”. For the substance GSKESPKRYSSSALASVGVI, the amyloid nucleation score entry was “inactive”. The entry for DPRRGIPIKPQMINTVQM is “inactive”; for STWDLNMCLFRYMFKI it is “inactive”. Next, CSLQWFMV: “inactive”.

Regarding LFNSRMCMPRFASASNLACL, the amyloid nucleation score entry is “inactive”. In the case of IQFLTNKQALLEKFPGKSPW, the amyloid nucleation score result is “inactive”. Take CYWPVCYSFGKLQACFYFEI: the amyloid nucleation score result was “inactive”.

As to GTWNVKAGGPYFKVVT, the amyloid nucleation score entry is “inactive”. In turn, TVFLDIISDVLILGGVRCRR displayed an amyloid nucleation score of 1.26 ± 0.13. Regarding IEAEHYCLLLVFLQVGLSSA, the amyloid nucleation score result was “inactive”. Take CISRKFFSVRSVYLWYVSAT: the amyloid nucleation score result is “inactive”. Consider VVMVLRVLLWWFRTSIMSRK, for which the amyloid nucleation score came to 0.467 ± 0.19.

KGVDQGISECFLAVWFGRMN: the amyloid nucleation score entry is “inactive”. As to VVLVFLRVTRYPSQKMVSAL, the amyloid nucleation score result is “inactive”. In the case of AIWLCCQLLLM, the amyloid nucleation score was found to be 2.63 ± 0.066.

Consider PRNRSVGKMLTRINNSFSRA, for which the amyloid nucleation score result was “inactive”. Turning to TRYPFQWLLRVGWKGAHLGM, the amyloid nucleation score entry is “inactive”. Regarding SGISCGLGLATGRKYGSGAV, the amyloid nucleation score entry was “inactive”. As to VNGFRVHWERPEHCYSVLML, the amyloid nucleation score entry was “inactive”.

Regarding CMFKGHAELLRWVL, the amyloid nucleation score entry was “inactive”. DNVIYPASYGVVRRNTRHGF: the amyloid nucleation score result was “inactive”. As for ADMCPVDRRVLDLVSKRAMS, the amyloid nucleation score entry is “inactive”. Next, YVDMP: 0.089 ± 0.87; QAKGIRYVGGLTWYNH: “inactive”.

Substance RNSTMIYTQ came in with an amyloid nucleation score of 2.24 ± 0.093. Turning to GYERSDKKLDKKVL, the amyloid nucleation score result was “inactive”. Substance DGCGCKWTGACAMLSCHMYL gave an amyloid nucleation score of 1.41 ± 0.091. Turning to DVLGVSSASERAFGFENRAL, the amyloid nucleation score result was “inactive”. For TRWRSLSEGPSVGLEITPRF, the amyloid nucleation score result is “inactive”. The entry for DLITSRSVLFVIVVL is “inactive”. Next, QHSGRWCGAPALGNLVAMSS: “inactive”. In turn, LRLTIMSGIRVPVFYEHSFM showed an amyloid nucleation score of -0.443 ± 0.96. Next, CKNLWRVLGISPTRSSSMRV: “inactive”; IYKSTFFKVRTSGPGRHFGF: 0.186 ± 0.37. Take VSNLGCCKALSCGMSYRVCW: the amyloid nucleation score entry is “inactive”. Take LICNCHPRESSDPTFLCGLG: the amyloid nucleation score result was “inactive”. The substance MLLCDKFVVCTCIGVQVYSY yielded an amyloid nucleation score of 2.19 ± 0.087. VRRDLGFFSRNVT: the amyloid nucleation score entry is “inactive”. As for MGKKSAHLSYRICVQCGKDG, the amyloid nucleation score result was “inactive”. The figure for FTSGTMVFTRLFRSNQQWWS is 1.53 ± 0.13; for FGGVGAW it is “inactive”; for NFLVSIHVFFYCWLSMFTYW it is “inactive”. Turning to YCDNYYSLMSTTEEFPRVCV, the amyloid nucleation score entry is “inactive”. For the substance VERHFAVDERP, the amyloid nucleation score was -0.682 ± 2.5. Take RGNATGSIKD: the amyloid nucleation score result was “inactive”. CGNTSIV: the amyloid nucleation score result was “inactive”. As to KHVGIVMH, the amyloid nucleation score result was “inactive”. For PNCVISSLTFRWVIFSECEP, the amyloid nucleation score result was “inactive”. Consider WNFGFGVWRFTAGG, for which the amyloid nucleation score was 1.33 ± 0.067. The entry for SRDFKIGCWLKIRSVIDPVW is “inactive”; for NSPNTNVPGFSRGAFAGGRH it is “inactive”; for LDFYRTFNDSIFKMGPLCLS it is “inactive”. In turn, QRVLY yielded an amyloid nucleation score of 0.864 ± 0.15.

Consider LFGEGKFKYWMSVKKFGSGI, for which the amyloid nucleation score entry was “inactive”. As for GVLMNHIELL, the amyloid nucleation score result is “inactive”. The figure for SYRASSGCHWREPHGLSDVR is 0.897 ± 0.21. As for TVNHDAIRELTDTSTDIFMS, the amyloid nucleation score entry was “inactive”.

LICVYVWVHCLMNPYHAINR came in with an amyloid nucleation score of 0.199 ± 0.16. On to RGAFSPVVWSDRMELLGRWL, for which the amyloid nucleation score result is “inactive”. Next, KGGSVGHQQLYMCWQYNPVF: “inactive”; QCSDVLYY: “inactive”. With RWFLSWWIYFEVKPNDNSFF, the amyloid nucleation score result is “inactive”.

Consider FCAINP, for which the amyloid nucleation score entry was “inactive”.

As to ILYSGVIILYSFYIRRPMVL, the amyloid nucleation score result was “inactive”. Turning to VNEIRDILLVSYSKFRAWGQ, the amyloid nucleation score amounted to 1.2 ± 0.13.

DATDCVRASMFMSFDASRH displayed an amyloid nucleation score of 1.29 ± 0.13.

On to YKYDRFWKVFHQGRTLVAGG, for which the amyloid nucleation score result was “inactive”.

SDVKSS: the amyloid nucleation score result is “inactive”. As to EIYCFRCVVIGIYYLVTIID, the amyloid nucleation score result was “inactive”. Next, YNDFCN: 0.194 ± 0.27; YLIYDRLSIQPDSSHHLVV: -0.124 ± 0.62. Next, HQTLKSQD: “inactive”. Next, WGTFIKSFQRLVKMVLLSMP: “inactive”; RSDSWLIYSSPINMM: “inactive”. For CPLVFDMILVSLCSNGAGLI, the amyloid nucleation score entry was “inactive”. Consider YGLSGDKFRWM, for which the amyloid nucleation score entry was “inactive”. The entry for CRVSGGTCMTGISDRRRERI is “inactive”.

For the substance TINIQCALGMNQT, the amyloid nucleation score was found to be 1.17 ± 0.11. In the case of IDLRC, the amyloid nucleation score entry was “inactive”. Regarding FLWLYQDCVV, the amyloid nucleation score result was “inactive”. For the substance SDGKQQLFKENS, the amyloid nucleation score entry is “inactive”. On to IAYNMCEIYVRVCYYFPIIC, for which the amyloid nucleation score result is “inactive”. The entry for HCSCDGAIRYDILQSNHKE is “inactive”; for LSRFD it is “inactive”. Next, YYFPWLYAKYSVVIINDMEP: 2.64 ± 0.05.
